Patent US20050054833A1 (published 2005)

T1: human CD23 (low affinity receptor for IgE, FceRII/CD23) on 8866 cells (human, UniProt P06734 1-321)
T1 construct: whole, on cells; Target of the first step cell ELISA (glutaraldehyde-fixed 8866 cells); also called cellular CD23; FCEL
T1 sequence (looked up): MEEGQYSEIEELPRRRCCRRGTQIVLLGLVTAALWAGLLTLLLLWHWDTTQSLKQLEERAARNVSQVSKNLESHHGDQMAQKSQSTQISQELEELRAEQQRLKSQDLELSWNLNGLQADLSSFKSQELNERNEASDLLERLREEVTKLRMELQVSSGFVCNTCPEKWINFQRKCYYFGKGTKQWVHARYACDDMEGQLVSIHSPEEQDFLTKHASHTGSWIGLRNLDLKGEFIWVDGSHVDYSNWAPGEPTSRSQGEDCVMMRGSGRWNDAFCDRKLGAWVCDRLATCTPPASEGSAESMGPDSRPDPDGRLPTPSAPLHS


Legend:
[1] = target: T1, human CD23 (low affinity receptor for …); experiment: cell ELISA on fixed 8866 cells, hybridoma supernatant
Procedure: The first step of the ELISA comprised the transferral of fifty microliters of supernatant from each well to ninety-six well plates which had previously been coated with 10⁵ 8866 cells (CD23 positive cell line) per well. These plates were made by first coating the plates with 50 μl of aqueous solution containing twenty μg/ml Poly L-Lysine (Sigma Catalog #P1399, MW 150,000-300,000) for thirty minutes at room temperature. The remaining solution was removed (“flicked out”) and the plates left to dry. Once dry, fifty μl of 8866 cells in PBS were transferred and spun at 600 g for five minutes. The 8866 cells were covalently bound to the plate by adding fifty μl 0.5% glutaraldehyde (Sigma Catalog #G6257) in phosphate buffered saline (PBS) for 15 minutes. The glutaraldehyde was removed (flicked out) and the plates blocked with one hundred fifty μl 100 mM glycine (Sigma Catalog #G-2879) in 0.1% BSA-PBS. […] The presence of the HRPO was detected by a color development after the addition of a TMB reagent (Kirkegaard & Perry, Gaithersburg, Md., Catalog #50-76-02 and 50-65-02), 100 μl/well. […] Optical density (OD) was measured at […] on a spectrophotometer (Titertek Multiscan). The OD values greater than two times the background were scored as positive.

[2] = target: T1, human CD23 (low affinity receptor for …); experiment: cell ELISA on 8866 cells

binding result [1]	binding result [2]	Binder
binds		primate anti-human CD23 monoclonal antibody 6G5 (antibody, V domains shown, Monoclonal antibody from a cynomolgus macaque heterohybridoma; also called primate 6G5) VH: QLQLQESGPGVVKPSETLSLTCAVSGGSVSSSNWWTWIRQPPGKGLEWIGRISGSGGATNYNPSLKSRVIISQDTSKNQFSLNLNSVTAADTAVYYCARDWAQIAGTTLGFWGQGVLVTVSS VL: QSAPTQPPSVSGSPGQSVTISCTGTSDDVGGYNYVSWYQHHPGKAPKLMIYDVAKRASGVSDRFSGSKSGNTASLTISGLQAEDEADYYCCSYTTSSTLLFGRGTRLTVLG
	binds	primate anti-human CD23 monoclonal antibody 5E8 (antibody, V domains shown, N-linked oligosaccharide at the asparagine of the heavy chain variable region glycosylation site (Kabat 75), Monoclonal antibody from a cynomolgus macaque heterohybridoma; also called primate 5E8) VH: EVQLVESGGGLAKPGGSLRLSCAASGFRFTFNNYYMDWVRQAPGQGLEWVSRISSSGDPTWYADSVKGRFTISRENANNTLFLQMNSLRAEDTAVYYCASLTTGSDSWGQGVLVTVSS VL: DIQMTQSPSSLSASVGDRVTITCRASQDIRYYLNWYQQKPGKAPKLLIYVASSLQSGVPSRFSGSGSGTEFTLTVSSLQPEDFATYYCLQVYSTPRTFGQGTKVEIK
